Results on 1 substance are retold here after article PMC8459632.

The test concerns the target SpyCatcher‐mi3 fusion protein. The test can be described thus: SDS-PAGE of the covalent conjugate.

The substance “2019‐nCoV RBD‐SpyTag (from UniProt P0DTC2 319-541) (domain or fragment)” returned a stoichiometry N (RBD monomers per particle) of 30.
